For test [1], the target named is human glucagon receptor (GCGR) (human, UniProt P47871 26-477). The experiment in a line: cell-based or functional assay.
Another test has as its target human GLP-1 receptor (human, UniProt P43220 24-463). Kind of test: cell-based or functional assay.

Positions of bridges follow the written chain, without caps; N, C: chain ends. Non-standard residues stand in square brackets, D forms with d. No end group written: not given here. tri‑branched mPEG‑MAL 50 kDa = tri-branched maleimide-activated monomethoxy PEG, 50 kDa; Aib = CC(C)(N)C(=O)O

Sequence of human glucagon receptor (GCGR) (P47871 26-477): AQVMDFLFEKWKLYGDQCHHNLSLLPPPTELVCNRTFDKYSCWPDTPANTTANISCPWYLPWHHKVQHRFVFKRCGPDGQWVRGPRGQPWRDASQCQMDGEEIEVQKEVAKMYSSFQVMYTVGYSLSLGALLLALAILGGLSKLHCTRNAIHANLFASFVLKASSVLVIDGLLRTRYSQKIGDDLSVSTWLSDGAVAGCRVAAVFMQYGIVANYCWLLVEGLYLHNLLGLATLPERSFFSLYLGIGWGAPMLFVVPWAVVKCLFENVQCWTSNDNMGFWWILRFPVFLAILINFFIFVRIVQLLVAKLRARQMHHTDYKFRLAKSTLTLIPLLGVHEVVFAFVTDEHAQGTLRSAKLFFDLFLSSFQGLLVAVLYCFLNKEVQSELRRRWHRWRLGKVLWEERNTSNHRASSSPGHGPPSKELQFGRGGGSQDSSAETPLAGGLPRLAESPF

B1: polypeptide of Example 1 (polypeptide into which cysteine was introduced, SEQ ID NO. 2) (peptide)
peptide: H[Aib]QGTFTSDYSKYLDEQAAKEFVQWLMNTC
modifications: lactam 16-20
Regarding B1, the “EC50 of glucagon receptor (GCGR) (nM); cAMP in CHO-K1 cells” value in test [1] amounted to 38.6 nM. Further, in the test with human GLP-1 receptor, the “EC50 of GLP-1 receptor (nM); cAMP (luciferase reporter) in HEK293/CRE-Luc cells” value came to 0.13 nM.

B2: conjugate of Example 2 (polypeptide of SEQ ID NO. 2 bound to tri-branched mPEG-MAL, MW 50 kDa) (peptide)
peptide: H[Aib]QGTFTSDYSKYLDEQAAKEFVQWLMNTC(tri‑branched mPEG‑MAL 50 kDa)
modifications: lactam 16-20
As for B2, the “EC50 of glucagon receptor (GCGR) (nM); cAMP in CHO-K1 cells” value in test [1] was 47 nM. Also, in the test with human GLP-1 receptor, the “EC50 of GLP-1 receptor (nM); cAMP (luciferase reporter) in HEK293/CRE-Luc cells” value amounted to 2.12 nM.

Source of the values: patent US20210317178A1 (D AND D PHARMATECH, published 2021).
